Assay results from patent publication US20140004120A1 (published 2014).
Where a chain is given by its changes, count along the chain named.

T1: rsDR5 (recombinant human DR5 extracellular domain protein) (UniProt O14763 56-183)
T1 chain: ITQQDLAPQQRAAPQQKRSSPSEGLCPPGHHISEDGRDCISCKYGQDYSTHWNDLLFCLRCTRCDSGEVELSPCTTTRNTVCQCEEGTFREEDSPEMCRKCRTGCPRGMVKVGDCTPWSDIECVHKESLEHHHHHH

B1: hB273_H2-1-NE/hB273_L1-NE (antibody, V domains shown)
VH: EVQLVQSGAEVKKPGASVKVSCKASGYSFIGYFMNWMKQSPGMSLEWIGRFNPYNEDTFYNQKFKGKATLTVDKSTSTAYMELSSLRSEDTAVYFCARSAYYFDSGGYFDYWGQGTLVTVSS
VL: DIVMTQSPLSLPVTPGEPASISCRSSQSLVHSNENTYLHWYLQKPGQSPQLLIYKVSNRFSGVPDRFSGSGSGTDFTLKISRVEAEDVGVYYCSQSTHVPWTFGPGTKVEIKR
B2: hB273_H2-1-NE/hB273_L1-NF (antibody, V domains shown)
VH: B1 VH
VL: B1 VL with E34F
B3: hB273_H2-1-NE/hB273_L1-NL (antibody, V domains shown)
VH: B1 VH
VL: B1 VL with E34L
B4: hB273_H1/hB273_L2 (antibody)
heavy: not shown
light: DVVMTQTPLSLPVSLGEPASISCRSSQSLVHSNGNTYLHWYLQKPGQSPKLLIYKVSNRFSGVPDRFSGSGSGTDFTLKISRVEAEDVGVYFCSQSTHVPWTFGPGTKVEIKRTVAAPSVFIFPPSDEQLKSGTASVVCLLNNFYPREAKVQWKVDNALQSGNSQESVTEQDSKDSTYSLSSTLTLSKADYEKHKVYACEVTHQGLSSPVTKSFNRGEC
B5: hB273_H1/hB273_L3 (antibody)
heavy: not shown
light: B4 light with P105G
B6: hB273_H2/hB273_L1 (antibody)
heavy: not shown
light: B4 light with V2I, T7S, S14T, L15P, K50Q, F92Y
B7: hB273_H3/hB273_L3 (antibody)
heavy: not shown
light: B4 light with P105G
B8: hB273_H2/hB273_L3 (antibody)
heavy: not shown
light: B4 light with P105G
B9: hB273_H2/hB273_L2 (antibody)
heavy: not shown
light: B4 light
B10: hB273_H3/hB273_L2 (antibody)
heavy: not shown
light: B4 light
B11: hB273_H3/hB273_L1 (antibody, V domains shown)
VH: B1 VH with M43K, E56G, Y80H, A97G
VL: B1 VL with E34G
B12: hB273_H1/hB273_L1 (antibody, V domains shown)
VH: B1 VH with E1Q, M37V, K38R, S40A, S44G, I48M, E56G, K67R, A68V, F95Y
VL: B1 VL with E34G
B13: hB273_H2-2/hB273_L1 (antibody)
heavy: not shown
light: B4 light with V2I, T7S, S14T, L15P, K50Q, F92Y
B14: hB273_H2-3/hB273_L1 (antibody)
heavy: not shown
light: B4 light with V2I, T7S, S14T, L15P, K50Q, F92Y
B15: hB273_H2-1/hB273_L1 (antibody)
heavy: not shown
light: B4 light with V2I, T7S, S14T, L15P, K50Q, F92Y
B16: hB273_H2-4/hB273_L1 (antibody, V domains shown)
VH: B1 VH with E1Q, E56G, A97G
VL: B1 VL with E34G
B17: hB273_H2-5/hB273_L1 (antibody, V domains shown)
VH: B1 VH with E1Q, M43K, E56G, A97G
VL: B1 VL with E34G
B18: hB273_H1-1/hB273_L1 (antibody, V domains shown)
VH: B1 VH with E1Q, K38R, S40A, S44G, I48M, E56G, K67R, A68V, A97G
VL: B1 VL with E34G

Molecular target: T1, rsDR5 (recombinant human DR5 …)
Experiment: Biacore

Row | Kd [nM] | Binder
1 | 2.02 | B1
2 | 1.76 | B2
3 | 1.76 | B3

Molecular target: T1, rsDR5 (recombinant human DR5 …)
Experiment: Biacore
Remark: another data set of the same source

Row | Kd [nM] | Binder
4 | 6.53 | B4
5 | 6.04 | B5
6 | 4.36 | B6
7 | 2.15 | B7
8 | 5.4 | B8
9 | 4.47 | B9
10 | 2.19 | B10
11 | 2.4 | B11
12 | 5.45 | B12

Molecular target: T1, rsDR5 (recombinant human DR5 …)
Experiment: Biacore
Remark: another data set of the same source

Row | Kd [nM] | Binder
13 | 2.14 | B13
14 | 2.12 | B14
15 | 1.99 | B15
16 | 1.55 | B16
17 | 1.38 | B17
18 | 1.83 | B18
